Data from the DeepSol protein solubility set.

Assay: soluble on expression in E. coli; label from the status in PepcDB or PDB records

| Sequence | soluble on expression in E. coli |
| --- | --- |
| VQFQEYVFLQFLGLDKAPSPQKFQPVPYILKKIFQDREAAATTGVSRDLCYVKELGVRGNVLRFLPDQGFFLYPKKISQASSCLQKLLYFNLSAIKEREQLTLAQLGLDLGPNSYYNLGPELELALFLVQEPHVWGQTTPKPGKMFVLRSVPWPQGAVHFNLLDVAKDWNDNPRKNFGLFLEILVKEDRDSGVNFQPEDTCARLRCSLHASLLVVTLNPDQCHPSRKRRAAIPVPKLSCKNLCHRHQLFINFRDLGWHKWIIAPKGFMANYCHGECPFSLTISLNSSNYAFMQALMHAVDPEIPQAVCIPTKLSPISMLYQDNNDNVILRHYEDMVVDECGCG | soluble |
| VQQLSLFGSIGDDGYDLLISTLTTISGNPPLLYNSLCTVWKPNPSYDVENVNSRNQLVEPNRIKLSKEVPFSYLIDETMMDKPLNFRILKSFTNDKIPLNYAMTRNILHNTVPQVTNFNSTNEDQNNSKHTEDTVNESRNSDDIIDVDMDASPAPSNESCSPWSLQISDIPAAGNNRSVSMQTIAETIILSSAGKNSSVSSLMNGLGYVFEFQYLTIGVKFFMKHGLILELQKIWQIEEAGNSQITSGGFLLKAYINVSRGTDIDRINYTETVLMNLKKELQGYIELSVPDRQSMDSRVAHGNILIAAALEHHHHHH | soluble |
| VSQRPFRDRVLHLLALRPYRKAELLLRLQKDGLTQADKDALDGLLQQVANMSAKDGTCTLQDCMYKDVQKDWPGYSEGDQQLLKRVLVRKL | soluble |
| VTAEIRLYITEGEVEDYRVFLERLEQSGLEWRPATPEDADAVIVLAGLWGTRRDEILGAVDLARKSSKPIITVRPYGLENVPPELEAVSSEVVGWNPHCIRDALEDALDVI | soluble |
| VTVHSTPVRRSSGPAPQSLLSARRVSALPTPASRRCSGLPPMTPKTMPRAVGSPLCVPARRRSSEPRKNSAMRTEPTRESNRKTDSRLVDVSPDRGSPPSRVPQALNFSPEESDSTFSKSTATEVAREEAKPGGDAAPSEALLVDIKLEPLAVTPDAASQPLIDLPLIDFCDTPEAHVAVGSESRPLIDLMTNTPDMNKNVAKPSPVVGQLIDLSSPLIQLSPEADKENVDSPLLKF | not soluble |
| VWPTAKQAASLIGLDPKLLVAQAALETGWGRFVTRDADGSSSNNLFNIKTGSHSEVESIQVKTTEYIADTPIKINASFRKYPSIEHSFHDYVSLIKGSERYQMALANAENPEIFVSELNKAGYATDPNYSNKILSIYHGDELNQAIQRCESFEQS | not soluble |
| VYRTPRTCSPHFPAGPARVINPGLHELHASAGDERDAPIGINFRSPRMRMAGEFVPDSGACDAAHGGSAAPTRKAGMRIGGAAAGKVE | not soluble |
| WRRLLESLQQGRRSEERNRLVVERTNQAILLLEPGAGTIIDANPATCVLLGFSRNELTGADIHALLSGPVQEVDSELERCLRETRELSLCHRDGAELVVEAMATQVPHGDDQALCLMFHDIT | not soluble |
| WSAEDKHKEGVNSHLWIVNRAIDIMSRNTTLVKQDRVAQLNEWRTELENGIYAANYENPYYDNSTFASHFYDPDNGKTYIPFAKQAKETGAKYFKLAGESYKNKDMKQAFFYLGLSLHYLGDVNQPMHAANFTNLSYPQGFHSKYENFVDTIKDNYKVTDGNGYWNWKGTNPEEWIHGAAVVAKQDYSGIVNDNTKDWFVKAAVSQEYADKWRAEVTPMTGKRLMDAQRVTAGYIQLWFDTYGDR | soluble |
| WVFFVEDGETIRVRLRSKGPVINTVAMEHNGGGHPMAAGAKAKSWEETDKIV | soluble |
| YDTVIRNRQTNDVNYLKRLAKKFGFSETQFMTTYQSSELAANLDEERQVVSRLKINQLPAYVVTYNEQSYVIKGVLKYKEWLDIIQQITN | not soluble |
| YHHSVVVGNLSEAACESIGENGLLARVGSYYHDLGKTRRPHFFIENQMKMENPHDRISPQLSATIIISHPYDGAKMLKEYKMPKEIIDIAEQHHGTSLLKYFYHKAQQESDQEVEETSFRYPGPKAQSKVAAIVGIADSVEA | soluble |
| YTDKYDKINLQEILENKRLLESYMDCVLGKGKCTPEGKELKDHLQEALETGCEKCTEAQEKGAETSIDYLIKNELEIWKELTAHFDPDGKWRKKYEDRAKAKGIVIPE | soluble |
